From patent publication US10864251B2, “Peptides of syndecan-1 for inhibiting angiogenesis” (Wisconsin Alumni Research Foundation, priority 2006, dated 2020)
Read-outs that look alike come from different tables or passages of the source. Where no end group is shown, it is not given here.

B1: S1ED: recombinant mouse Sdc1 ectodomain (amino acids 18-251), expressed in bacteria as GST fusion or 6×His-tagged protein (protein)
chain: QPALPQIVAVNVPPEDQDGSGDDSDNFSGSGTGALPDTLSRQTPSTWKDVWLLTATPTAPEPTSSNTETAFTSVLPAGEKPEEGEPVLHVEAEPGFTARDKEKEVTTRPRETVQLPITQRASTVRVTTAQAAVTSHPHGGMQPGLHETSAPTAPGQPDHQPPRVEGGGTSVIKEVVEDGTANQLPAGEGSGEQDFTFETSGENTAVAAVEPGLRNQPPVDEGATGASQSLLDRK
modifications: left off: a dimerising Fc or GST
notes: recombinant mouse Sdc1 ectodomain (amino acids 18-251), expressed in bacteria as GST fusion or 6×His-tagged protein

Experiments:
[1] = system: MDA-MB-231 human mammary carcinoma cells; type: cell-based
Method: FIGS. 5A-5F—Inhibition of MDA-MB-231 human mammary carcinoma cell attachment and spreading on VN by synstatin82-130. MDA-MB-231 human mammary carcinoma cells, which rely on the αvβ3 integrin for attachment and spreading on VN, were plated on 10 μg/ml VN for 2 hr in the absence of peptide (FIG. 5A) or in the presence of 0.1 (FIG. 5B), 0.3 (FIG. 5C) or 1 μM (FIG. 5D) synstatin82-130. The cells were fixed and stained as in FIG. 2.
FIG. 17—Human SSTN peptides inhibit αvβ3-mediated cell attachment and spreading on vitronectin. MDA-MB-231 human mammary carcinoma cells were allowed to attach and spread on either vitronectin (VN) or fibronectin (FN) during a 2 hr assay in the presence of 0, 0.1, 0.3, 0.5, 1.0 or 30 μM SSTN peptide. […] The two peptides tested are derived either from amino acids 88-121 (hSSTN 88-121) or 89-120 (hSSTN 89-120) of the human Sdc1 sequence. Adhesion to VN, but not FN, is mediated by the αvβ3 integrin on these cells and is disrupted by the human SSTN peptides.
Cell adhesion and spreading assays were performed with modification to the previous procedures (Lebakken and Rapraeger, 1996. Briefly, human plasma vitronectin or fibronectin at 10-30 μg/ml were applied to nitrocellulose-coated ten well slides (Erie Scientific) and incubated for 1-2 h at 37° C. Slides were blocked with 1.0% heat-denatured bovine serum albumin for a minimum of 30 min at 37° C. Cells were detached from the substratum using 5 mM EDTA in Tris-buffered saline and resuspended in HEPES-buffered culture medium containing 0.1% heat-denatured BSA. Cells were plated at a density of 15,000 cells per well and allowed to attach and spread for 2 h prior to fixation in 4% paraformaldehyde in CMF-PBS. For fluorescence microscopy, fixed cells were permeabilized in 0.2% Triton X-100, labeled with rhodamine-conjugated phalloidin and analyzed using fluorescence microscopy. For testing inhibition by recombinant mScd-1ED and synstatin82-130, cells were pre-incubated 10 min before plating in the presence of the inhibitor. […] LM609 was used as a specific block to αvβ3 and P1F6 was used as a specific blocker of αvβ5.
The inventors have tested the adhesion and spreading of MDA-MB-231 mammary carcinoma cells on VN in the presence or absence of synstatin82-130. These cells rely specifically on the active αvβ3 integrin for this adhesion (Beauvais et al., 2004). Recombinant Sdc1 ectodomain (SLED) has been shown by the inventors previously to block spreading of these cells with an IC50 of about 3-10 μM (Beauvais et al., 2004). […] Thus, synstatin82-130 is a specific and effective inhibitor of αvβ3 integrin activation.

segments of mouse aorta = type: cell-based; conditions: for block of VEGF-induced outgrowth: 50 ng/ml VEGF, 7 days
Method: FIG. 12—SSTN blocks aortic ring angiogenesis. Aortic segments were explanted to collagen gels for 7 days in the presence of 50 ng/ml vascular endothelial cell growth factor (VEGF), or 30 ng/ml FGF-2 in the presence or absence of mS1ED or SSTN. Total outgrowth in quantified as the total length of all microvessels.
To test the activity of SSTN as an anti-angiogenic agent, the inventors turned to the in vitro aortic ring outgrowth assay and the in vivo corneal angiogenesis model. The aortic outgrowth assay allows quantification of microvessel outgrowth from segments of mouse aorta explanted to type I collagen gels. As was found when examining the mouse aortic endothelial cell line in culture, both syndecan-1 and the αvβ3 and αvβ5 integrins appear present even on the resting mouse aorta (FIG. 11A). In addition, microvessels growing out from the aortic explant over a 7 days period in response to FGF stain positively for syndecan-1, with appears co-expressed with the αvβ3 and αvβ5 integrins (FIG. 11B). To extend this finding of syndecan-1 expression in activated endothelium, the inventors also examined two models of mouse breast tumor formation. Tumors derived from wnt-1 overexpression in the mammary gland show a high degree of vascularization, identified as internal networks lined by a thick cell layer than stains intensely for syndecan-1 and for PECAM (CD31), indicative of activated endothelium (FIG. 11C). In fact, syndecan-1 expression in these cells swamps out the positive staining for syndecan-1 seen in the mammary epithelial cells, which are known to be positive for syndecan-1. These same cell layers as positive for αv, β3 and β5 integrin subunits. A similar finding is seen in tumors arising from overexpression of β-catenin (FIG. 11C). Although the vascularization is not as extensive as in the […] tumors, there are clear thickened layers of cells that are PECAM, syndecan-1 and αvβ3/αvβ5 integrin positive in these mammary tumors.
To test the effect of SSTN on microvessel outgrowth, segments of thoracic aorta were explanted to collagen gels in the presence of either 50 ng/ml vascular endothelial cell growth factor (VEGF) or 30 ng/ml FGF-2, and incubated in the presence of either recombinant mS1ED or SSTN. Although some vessel outgrowth is observed in the absence of exogenous angiogenic agents, likely due to VEGF release by supporting cells growing out from the explant, the outgrowth is greatly (≥10-fold) increased by FGF or VEGF (FIG. 12). Addition of recombinant mS1ED blocks VEGF-induced outgrowth by more than 70% at 10 μM, and greater than 95% at 30 μM. FGF induced outgrowth requires slightly higher inhibitory concentrations (approximately 30 μM mS1ED for 70% inhibition), which may trace to a difference in susceptibility of the two integrins, as VEGF signaling is reportedly coupled to αvβ5 integrin activation and FGF signaling is coupled to αvβ3 activation. […] It should be noted that the microvessel outgrowth is accompanied by the outgrowth of support cells, most likely smooth muscle cells and fibroblasts. […] Thus, the effects of SSTN are highly localized to the vascular endothelial cells.

Molecule | IC50 ([1]; 2 h) | IC50 (segments of mouse aorta) | complete block of cell attachment on VN ([1]; highest concentration tested, 50 μM) | concentration for 70% inhibition of FGF induced outgrowth (segments of mouse aorta; 30 ng/ml FGF-2, 7 days) | block of VEGF-induced outgrowth (segments of mouse aorta; 10 μM) | block of VEGF-induced outgrowth (segments of mouse aorta; 30 μM) | outgrowth of support cells (non-endothelial) (segments of mouse aorta; aortic ring explants)
SNTETAFTSVLPAGEKPEEGEPVLHVEAEPGFTARDKEKEVTTRPRETV [synstatin82-130] | ~100 nM | 100 nM |  |  |  |  | 
B1 |  |  | not seen | approximately 30 μM | more than 70% | greater than 95% | unaffected
